Reference: publication PMC3044595

Target: BclA N-terminal 35 amino acids fused to eGFP (Bacillus anthracis) (UniProt Q81JD7)
Assay: FRET or BRET

BxpB-mCherry fusion (from UniProt S5W424 1-167) (natural protein)
fold decrease of the eGFP signal (FRET), against BclA NTD-eGFP alone: 2.1 fold
percent of FRET positive spores: 14.8%
